These results are taken from US20260184766A1 (APPLIED BIOMEDICAL SCIENCE INSTITUTE, published 2026).

A word on the EC50 (read off the curve): it is the midpoint of the concentration-response curve. The EC50 is the concentration at which the effect is half-maximal.

The target in test [1] is T1, SARS CoV-2 spike trimer protein from the parental Wuhan-Hu-1 isolate (recombinant stabilized extracellular … (SARS-CoV-2 (Wuhan-Hu-1))).
T1 construct: also called Spike protein
The experiment in a line: ELISA on coated spike protein, anti-human Fc-HRP, OD450. A general note: ELISA stands for enzyme-linked immunosorbent assay.

In test [2] the target is T1, SARS CoV-2 spike trimer protein from …. The experiment in a line: ELISA on coated recombinant stabilized spike protein, panel WT, OD 450.
Test [3] shares this target. The experiment in a line: ELISA, spike coated, chimeric IgG1.

B1: R2G3 chimeric bovine-human IgG1 (ultralong CDR3) (antibody)
VH: QVQLRESGPSLVKPSQTLSLTCAASGFSLSDKAVGWVRRAPGKALEWLGSIDTGGSTGYNPGLKSRLSITKDNSKSQVSLSISSVTSEDSATYYCATVHQKTAEGDKTCPDGYEHTCGCIGGCGCKRSACIGALCCQASLGGWLSDGETYTYEFHVDTWGQGLVVTVSS
VL: QAVLNQPSSVSGSLGQRVSITCSGSSSNVGNGYVSWYQLIPGSAPRTLIYGDTSRASGVPDRFSGSRSGNTATLTISSLQAEDEADYFCASAEDSSSNAVFGSGTTLTVL
notes: also called 2G3 IgG; R2-G3 IgG
For B1, the “EC50 (read off the curve)” value was ~0.01 nM in test [1] and ~0.4 nM in test [2].

B2: R2F12 chimeric bovine-human IgG1 (ultralong CDR3) (antibody)
VH: QVQLRESGPSLVKPSQTLSLTCTVSGFSLSDKAVGWVRRAPGKALEWLGSIDTGGMTGYNPGLKSRLSITKDNSKSQVSLSVNSVTTEDSATYYCATVDQKTKNACPDDFDYRCSCIGGCGCARKGCVGPLCCRSDLGGYLTDSPAYIYEWYIDLWGQGLLVTVSS
VL: QAVLNQPSSVSGSLGQRVSITCSGSSSNVGNGYVSWYQLIPGSAPRTLIYGDTSRASGVPDRFSGSRSGNTATLTISSLQAEDEADYFCASAEDSSSNAVFGSGTTLTVL
notes: also called RR2F12
B2: the EC50 in test [3] is 0.05 nM. Moreover, the “EC50 (read off the curve)” value is ~0.02 nM in test [1] and ~0.3 nM in test [2].

B3: R2C3 (R5C1) chimeric bovine-human IgG1 (ultralong CDR3) (antibody)
VH: QVQLRESGPSLVKPSQTLSLTCTASGFSLSDKPVGWVRQAPGKPLEWLGSIDTAENTGYNPGLKSRLSITKDNSKSQVSLSLSSVTTEDSATYYCATVHQKTRKEKSCPDGYLYSSNTGRGYDCGVWTCRRVGGEFCSATGDWTSPSEEDFYEFYVDTWGQGAPVTVSS
VL: QAVLNQPSSVSGSLGQRVSITCSGSSSNVGNGYVSWYQLIPGSAPRTLIYGDTSRASGVPDRFSGSRSGNTATLTISSLQAEDEADYFCASAEDSSSNAVFGSGTTLTVL
notes: also called SA-R2C3
Consider B3, for which the EC50 in test [3] was found to be 0.39 nM. The “EC50 (read off the curve)” value in test [2] was ~0.3 nM.

B4: R2D6 chimeric bovine-human IgG1 (antibody, V domains shown)
VH: QVQLRESGPSLVKPSQTLSLTCTTSGFSLSSYAVGWVRQAPGKALEWVGDIDYVGNTDYNPALKSRLSITKDNSKSQVSLVVSSVTAEDAATYYCAKYSGAYAYAACNYYGWRCAWESYIDAWGQGLLVTVSS
VL: QAVLNQPSSVSGSLGQRVSITCSGSSSNVGNGYVSWYQLIPGSAPRTLIYGDTSRASGVPDRFSGSRSGNTATLTISSLQAEDEADYFCASAEDSSSNAVFGSGTTLTVL
Take B4: the EC50 in test [3] came to 0.41 nM.

B5: R2B1 chimeric bovine-human IgG1 (antibody, V domains shown)
VH: QVQLRESGPSLVKPSQTLSLTCTVSGFSLSDNNVGWVRQAPGKALEWLGVMHNDGNKGYNPALKSRLSITKDSSKSQVSLSLSSVTSEDTATYYCTRDNARCDSWTYDSCDTWYRNSWHVDAWGQGLLVTVSS
VL: QAVLNQPSSVSGSLGQRVSITCSGSSSNVGNGYVSWYQLIPGSAPRTLIYGDTSRASGVPDRFSGSRSGNTATLTISSLQAEDEADYFCASAEDSSSNAVFGSGTTLTVL
In the case of B5, the concentration for a half-maximal effect (EC50) in test [3] worked out at 0.37 nM.

B6: RBD F4 chimeric bovine-human IgG1 (antibody, V domains shown)
VH: QVQLRESGPSLVKPSQTLSLTCTVSGFSLSSNGVVWVRQAPGKALEWLGDICSTGGTSFNPALKSRLSIAKDNSKSQVSLSVRSVTPEDTATYYCARSRGYDCYANVDALDYVDAWGQGLLVTVSS
VL: QAVLNQPSSVSGSLGQRVSITCSGSSSNVGNGYVSWYQLIPGSAPRTLIYGDTSRASGVPDRFSGSRSGNTATLTISSLQAEDEADYFCASAEDSSSNAVFGSGTTLTVL
Regarding B6, the EC50 in test [3] came to 0.03 nM.

B7: SR3A3 chimeric bovine-human IgG1 (ultralong CDR3) (antibody)
VH: QVQLRESGPSLVKPSQTLSLTCTISGFSLSSYAVLWVRQAPGKPLEWLGSIDTAENTGYNPGLKSRLSITKDNSKSQVSLSVSSVTTEDSATYYCATVHQKTRKEKNCPDGYIYSSNITSGFDCGVWICRRVGSAFCSRTGDYTSPTELDIYEFYVEGWGQGVPVTVSS
VL: QAVLNQPSSVSGSLGQRVSITCSGSSSNVGNGYVSWYQLIPGSAPRTLIYGDTSRASGVPDRFSGSRSGNTATLTISSLQAEDEADYFCASAEDSSSNAVFGSGTTLTVL
Regarding B7, the concentration for a half-maximal effect (EC50) in test [3] came out at 0.037 nM.

B8: RBD A2 chimeric bovine-human IgG1 (antibody, V domains shown)
VH: QVQLRESGPSLVKPLQILSLTCTVSGFSLSSNGVVWVRQAPGKALEWLGDICSTGGTSFNPALKSRLSIAKDNSKSQVSLSVRSVTPEDTATYYCARSRGYDCYANVDALDYVDAWGQGLLVTVSS
VL: QAVLNQPSSVSGSLGQRVSITCSGSSSNVGNGYVSWYQLIPGSAPRTLIYGDTSRASGVPDRFSGSRSGNTATLTISSLQAEDEADYFCASAEDSSSNAVFGSGTTLTVL
Regarding B8, the EC50 in test [3] turned out to be 0.024 nM.

B9: RBD C6 chimeric bovine-human IgG1 (antibody, V domains shown)
VH: QVQLRESGPSLVKPSQTLSLTCTVSGFSLSSNGVVWVRQAPGRPLEWLGDICSNGGTSFNPALKSRLSIAKDNSESQVSLTVRSVTPEDTATYYCARSRGYDCYAYVYALDTVDAWGQGLLVTVSS
VL: QAVLNQPSSVSGSLGQRVSITCSGSSSNVGNGYVSWYQLIPGSAPRTLIYGDTSRASGVPDRFSGSRSGNTATLTISSLQAEDEADYFCASAEDSSSNAVFGSGTTLTVL
Turning to B9, the EC50 in test [3] came out at 0.03 nM.
